# Assay results from the supplement of paper PMC10724198.
# ± gives the standard deviation of the averaged measurements.
# Test system: Saccharomyces cerevisiae
# Assay: protein stability index of tFT-peptide fusion (C-terminal peptide) (PSI (0-1 scale)); higher = more stable (slower turnover)
# Conditions: genetic background: wild type; temperature: 30 C
# 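Note: PSI is a weighted mean of sequencing reads over stability bins, variants kept only with over 10 reads, mCherry proximal and sfGFP distal, peptide attached via GGGS linker.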
row,Sequence,protein stability index
1,WFCSVICGVFSV,0.5678 ± 0.00093
2,WFKALCPIFCKD,0.62 ± 0.015
3,WFLRSFGIQRSG,0.511 ± 0.0047
4,WFRLRFASGRRS,0.682 ± 0.054
5,WFVCVARCPFPF,0.623 ± 0.035
6,WFVTVISSRFGS,0.6444 ± 0.0011
7,WGARSRFRWGRS,0.7284 ± 0.0052
8,WGDGSGRVWEIS,0.68 ± 0.03
9,WGFGRCELMLGS,0.708 ± 0.035
10,WGGGGRLAGLLG,0.687 ± 0.037
11,WGGGRGLRGRWG,0.694 ± 0.057
12,WGGRAVGVLGVG,0.629 ± 0.048
13,WGGRSWGLRRGC,0.664 ± 0.028
14,WGGTAGWLHIGV,0.747 ± 0.076
15,WGGVRSGGACCA,0.72 ± 0.075
16,WGKRGGLGALSR,0.653 ± 0.06
17,WGLLCPLRSDNV,0.705 ± 0.017
18,WGRGETLCSSVP,0.72 ± 0.011
19,WGRGGSRGSWGA,0.716 ± 0.014
20,WGRNGRRMEVTK,0.687 ± 0.017
21,WGSVGVVGLFSG,0.69 ± 0.057
22,WGTDVGAGCVAR,0.741 ± 0.027
23,WGVCWRVWGFGC,0.677 ± 0.074
24,WGWGGGWSGACL,0.679 ± 0.0071

row,Sequence,protein stability index
1,WGWGRWEMVGRT,0.695 ± 0.011
2,WGYGRGRVWEIS,0.6137 ± 0.0011
3,WHLQYTLIPYEA,0.635 ± 0.054
4,WIGRSVGVELCR,0.807 ± 0.13
5,WIKKGKNRLRKT,0.586 ± 0.05
6,WISAPTDRNITN,0.713 ± 0.0095
7,WISLRRIKSNRE,0.802 ± 0.014
8,WKYRGVGGVGMG,0.745 ± 0.097
9,WLFVGGWGVFGG,0.674 ± 0.068
10,WLVRNVVGGGVC,0.722 ± 0.061
11,WLYGEFGALVVD,0.685 ± 0.033
12,WNWSIITTENKP,0.7 ± 0.064
13,WPGICVWAGSPG,0.717 ± 0.06
14,WPVRNRIQPPPR,0.705 ± 0.051
15,WQGSASCSVVLV,0.55 ± 0.043
16,WQIDVWDSNCVM,0.692 ± 0.027
17,WQWDMESKRKKE,0.7056 ± 0.0026
18,WRFTSCCPDPAT,0.772 ± 0.076
19,WRLDDPTLISNI,0.693 ± 0.032
20,WRMGCSVRGVVG,0.693 ± 0.055
21,WRPVSVVSPLSD,0.677 ± 0.081
22,WRSSSFFPAAVG,0.6715 ± 0.0042
23,WRVDKREPPGRL,0.707 ± 0.034
24,WSGDLRNIEFAR,0.816 ± 0.1

row,Sequence,protein stability index
1,WSGQWCRGRAGG,0.706 ± 0.018
2,WSGWGYGISALL,0.681 ± 0.047
3,WSIEESLGIWLR,0.538 ± 0.021
4,WSLPILPPPSPD,0.663 ± 0.032
5,WSQDRLFLGFGC,0.875 ± 0.038
6,WSRLAGMGRGGA,0.764 ± 0.013
7,WSRSGGGEKYGV,0.69 ± 0.0094
8,WSSGLHHLPPSP,0.706 ± 0.091
9,WSSPCTGGVGKC,0.63 ± 0.0068
10,WSSSPAFKPSRR,0.655 ± 0.098
11,WSVVRVGGCGAR,0.699 ± 0.024
12,WSWGGLHRELAA,0.744 ± 0.0099
13,WSWRGMVELVEE,0.642 ± 0.069
14,WTPGTPVFSKGI,0.714 ± 0.035
15,WVGGGLVVFGWK,0.6944 ± 0.0025
16,WVGGVVMVPVLL,0.542 ± 0.0094
17,WVGLGRVWVKLG,0.697 ± 0.044
18,WVLGGVAPPAVL,0.694 ± 0.048
19,WVLPFLGAWLEL,0.606 ± 0.063
20,WVPCGYIERAPL,0.582 ± 0.05
21,WVSAMGIPRVVG,0.574 ± 0.05
22,WVSGLVSIGACL,0.683 ± 0.0076
23,WVTCALVVQSRF,0.693 ± 0.0073
24,WVVLGGRSGCGA,0.667 ± 0.053

row,Sequence,protein stability index
1,WWEGSFRVGAVR,0.638 ± 0.008
2,WWGCRSVGVGLG,0.675 ± 0.025
3,WWGWGGVACLLL,0.693 ± 0.059
4,WWVGVVGCGSGA,0.676 ± 0.11
5,WYRIPGASHGPP,0.662 ± 0.034
6,YADTCEGDNLTS,0.661 ± 0.03
7,YAKKIDTIIILT,0.54 ± 0.009
8,YANFFVVGELGP,0.687 ± 0.02
9,YAYLGSNLKQTA,0.703 ± 0.03
10,YCHVPVVGSWIP,0.735 ± 0.067
11,YCLERVPAEYDG,0.67 ± 0.019
12,YCVMEVAGLEWE,0.69 ± 0.038
13,YDFHWAYFHSLY,0.7113 ± 0.0035
14,YFCGARSVGPGD,0.717 ± 0.035
15,YFVAVLGRCIRG,0.6519 ± 0.0011
16,YGAGLSHLFRIS,0.636 ± 0.041
17,YGGGVWRGVALG,0.6914 ± 0.0052
18,YGLVSFVCFNGG,0.679 ± 0.042
19,YGTGNGRRTYFD,0.735 ± 0.04
20,YGVLEYLRDLVF,0.689 ± 0.016
21,YIGSVCLCVSPV,0.5999 ± 0.0038
22,YIHQRKGRKPNE,0.622 ± 0.057
23,YINTKKKKINKT,0.655 ± 0.014
24,YIQGAPGGLGYP,0.713 ± 0.0077

row,Sequence,protein stability index
1,YKGQVKKNNPQC,0.726 ± 0.033
2,YKGRYDCRVGGR,0.682 ± 0.0096
3,YKKVKADKKKRM,0.687 ± 0.017
4,YLCVLASLSSTF,0.591 ± 0.022
5,YLFVRTGYRCKW,0.681 ± 0.033
6,YLGFRADVVFGK,0.712 ± 0.063
7,YLGFRVACPMLA,0.501 ± 0.036
8,YLGWLYQKCGTV,0.639 ± 0.056
9,YLKVNDELERRR,0.695 ± 0.05
10,YLRACDPPAVHR,0.67 ± 0.024
11,YLRGRCSSLSLR,0.698 ± 0.036
12,YLSPPLLPSFPL,0.728 ± 0.021
13,YLSVLQLRCFPA,0.659 ± 0.019
14,YLTNIHQRVLLP,0.659 ± 0.031
15,YLVKSCCNKDNV,0.659 ± 0.029
16,YLVPPLQPHSPA,0.7305 ± 0.0056
17,YLVRENLFSRLV,0.466 ± 0.07
18,YMAGPAQGRDGS,0.668 ± 0.013
19,YNANEKTINKDK,0.693 ± 0.063
20,YNYADVCTNESP,0.7 ± 0.022
21,YPCPPLLISSPP,0.709 ± 0.051
22,YPPLSYSFCHRP,0.637 ± 0.072
23,YPSQLGPSVPLS,0.703 ± 0.039
24,YPTCPPPSARRV,0.58 ± 0.025

row,Sequence,protein stability index
1,YQGERGAIGVIF,0.605 ± 0.013
2,YRAHAYPYVPRS,0.682 ± 0.027
3,YRALRRAFENKI,0.633 ± 0.028
4,YRCVQKEIVQRY,0.693 ± 0.056
5,YRDSLLATNFFS,0.694 ± 0.056
6,YREIVKQTENKR,0.673 ± 0.0083
7,YRPLEQLLSLSH,0.651 ± 0.08
8,YSFFTLCLSLPA,0.557 ± 0.025
9,YSHPCLSCREAH,0.749 ± 0.057
10,YSIKSTVTYSVH,0.574 ± 0.066
11,YSLASRVVNFCA,0.497 ± 0.012
12,YSLLSAHLVPIA,0.614 ± 0.027
13,YSLVKITHGRKK,0.684 ± 0.015
14,YSSFRSVNWVFP,0.6838 ± 0.0033
15,YSSLLLPPLLLF,0.621 ± 0.025
16,YSTYGGGYFMAF,0.668 ± 0.031
17,YTLMEERTKKDN,0.742 ± 0.068
18,YTMGGSLSVSLD,0.817 ± 0.16
19,YTPLLAHRGCCC,0.695 ± 0.029
20,YVPTPSRPRRNR,0.718 ± 0.066
21,YYPLLLASQLPI,0.735 ± 0.0041
22,YYRLLACQRPSR,0.679 ± 0.027
